Publication PMC4658561, “A mechanism of glucose tolerance and stimulation of GH1 β-glucosidases” (Scientific Reports, 2015)
Residue numbers refer to the chain shown, from its start.

Legend:
[1] = system: T1, O=[N+]([O-])c1ccc(O[C@@H]2O[C@H](CO)[C@@H](O)[C@H](O)[C@H]2O)cc1; experiment: purified protein; assay type: biochemical, uncultured bacterium; conditions: no glucose, 50 mM Na2HPO4-citric acid buffer pH 7.0, optimal conditions
T1 construct: pET-22b(+) NdeI/XhoI, C-terminal His6 (kept), E. coli BL21(DE3), Ni-NTA purified; GH1, EC 3.2.1.21; residues V227, H228, N301, V302

[2] = molecular target: T2, Bgl1A (uncultured bacterium, UniProt D5KX75); experiment: relative activity on pNPG versus glucose concentration; assay type: biochemical; conditions: pH […], stimulation at low concentration, transglycosylation acceptor
T2 construct: pET-22b(+) NdeI/XhoI, C-terminal His6 (kept), E. coli BL21(DE3), Ni-NTA purified; GH1, EC 3.2.1.21; residues T228, Q301, F302
T2 sequence (D5KX75 1-442): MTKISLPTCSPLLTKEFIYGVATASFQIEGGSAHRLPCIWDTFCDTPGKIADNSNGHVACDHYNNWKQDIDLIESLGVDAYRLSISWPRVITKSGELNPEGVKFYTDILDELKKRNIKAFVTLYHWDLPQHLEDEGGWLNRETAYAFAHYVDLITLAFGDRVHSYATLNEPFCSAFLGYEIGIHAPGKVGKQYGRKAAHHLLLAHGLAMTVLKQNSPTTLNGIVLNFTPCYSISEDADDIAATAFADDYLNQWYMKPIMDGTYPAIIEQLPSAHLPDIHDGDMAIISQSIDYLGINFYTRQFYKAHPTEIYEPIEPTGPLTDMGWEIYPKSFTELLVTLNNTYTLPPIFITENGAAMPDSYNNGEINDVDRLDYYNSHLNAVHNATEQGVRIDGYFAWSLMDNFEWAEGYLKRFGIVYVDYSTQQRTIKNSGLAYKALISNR

[3] = molecular target: T3, Bgl1B (uncultured bacterium, UniProt D0VEC8); experiment: as above; assay type: biochemical; conditions: pH […], product inhibition, competitive
T3 construct: pET-22b(+) NdeI/XhoI, C-terminal His6 (kept), E. coli BL21(DE3), Ni-NTA purified; GH1, EC 3.2.1.21; residues V227, H228, N301, V302
T3 sequence (D0VEC8 1-449): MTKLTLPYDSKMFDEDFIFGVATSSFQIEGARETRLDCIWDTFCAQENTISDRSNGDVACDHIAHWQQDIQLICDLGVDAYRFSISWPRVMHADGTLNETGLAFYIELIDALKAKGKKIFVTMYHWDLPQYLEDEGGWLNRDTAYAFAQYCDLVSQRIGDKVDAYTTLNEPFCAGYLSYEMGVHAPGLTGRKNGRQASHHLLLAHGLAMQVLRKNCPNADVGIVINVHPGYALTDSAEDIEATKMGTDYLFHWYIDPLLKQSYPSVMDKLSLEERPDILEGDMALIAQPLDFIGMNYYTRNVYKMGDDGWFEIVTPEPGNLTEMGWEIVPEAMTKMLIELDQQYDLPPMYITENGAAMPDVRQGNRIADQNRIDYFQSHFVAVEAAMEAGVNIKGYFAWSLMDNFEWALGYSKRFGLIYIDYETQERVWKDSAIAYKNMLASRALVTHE

[4] = molecular target: T4, Bgl1B (uncultured bacterium, UniProt D0VEC8, H228T); experiment: as above; assay type: biochemical; conditions: pH […], stimulation at low concentration, transglycosylation acceptor
T4 construct: pET-22b(+) NdeI/XhoI, C-terminal His6 (kept), E. coli BL21(DE3), Ni-NTA purified; GH1, EC 3.2.1.21; residues V227, H228, N301, V302
T4 sequence (D0VEC8 1-449 H228T): T3 sequence (D0VEC8 1-449) with H228T

[5] = system: T5, O=[N+]([O-])c1ccc(O[C@@H]2O[C@H](CO)[C@@H](O)[C@H](O)[C@H]2O)cc1; experiment: purified protein; assay type: biochemical, uncultured bacterium; conditions: no glucose, 50 mM Na2HPO4-citric acid buffer pH 7.0, optimal conditions
T5 construct: pET-22b(+) NdeI/XhoI, C-terminal His6 (kept), E. coli BL21(DE3), Ni-NTA purified; GH1, EC 3.2.1.21; residues T228, Q301, F302

## Bgl1B (uncultured bacterium; H228T)
[1]
  Km: 360 ± 30 µM
  Vmax: 10.1 µM/min
  kcat/Km: 24200 M⁻¹ s⁻¹

## Bgl1B (uncultured bacterium)
[1]
  Km: 270 ± 20 µM
  Vmax: 12.6 µM/min
  kcat/Km: 74700 M⁻¹ s⁻¹

## Bgl1B (uncultured bacterium; N301Q/V302F)
[1]
  Km: 830 ± 70 µM
  Vmax: 8.84 µM/min
  kcat/Km: 2860 M⁻¹ s⁻¹

## OC[C@H]1OC(O)[C@H](O)[C@@H](O)[C@@H]1O (stereo partly drawn) [glucose]
[2]
  relative activity: Bgl1A displayed high glucose tolerance, and was stimulated by low concentrations of glucose
[3]
  relative activity: the activity of Bgl1B was persistently inhibited by glucose
[4]
  relative activity: only B:H228T exhibited glucose stimulation, essentially distinctive from wild-type Bgl1B

## Bgl1A (uncultured bacterium)
[5]
  Km: 690 ± 70 µM
  Vmax: 2.7 µM/min
  kcat/Km: 35500 M⁻¹ s⁻¹
